# Assay results from paper PMC9163516, “Convergent evolution of a parasite-encoded complement control protein-scaffold to mimic binding of mammalian TGF-β to its receptors, TβRI and TβRII” (The Journal of Biological Chemistry, 2022).
# Substitutions are numbered along the chain they refer to.
# B1: TGM-D2 (domain or fragment)
# chain: RCSPLPTNDTVSFEYLKATVNPGIIFNITVHPDASGKYPELTYIKRICKNFPTDSNVQGHIIGMCYNAEWQFSSTPTCPAS
# modifications: refolded from E. coli, disulfide-bonded; limits set between D1 (ends at 95) and D3 (starts at about 177); vector residues left after thrombin cleavage omitted
# B2: TβRI ectodomain (receptor)
# chain: LQCFCHLCTKDNFTCVTDGLCFVSVTETTDKVIHNSMCIAEIDLIPRDRPFVCAPSSKTGSVTTTYCCNQDHCNKIELPTTVKSSPGLGPVEL
# notes: also called TGF-β type I receptor
# B3: TGM-D12 (domain or fragment)
# chain: DDSGCMPFSDEAATYKYVAKGPKNIEIPAQIDNSGMYPDYTHVKRFCKGLHGEDTTGWFVGICLASQWYYYEGVQECDDRRCSPLPTNDTVSFEYLKATVNPGIIFNITVHPDASGKYPELTYIKRICKNFPTDSNVQGHIIGMCYNAEWQFSSTPTCPAS
# modifications: refolded from E. coli, disulfide-bonded; start from the listed D1 range (16-95), end set just before D3 (Cys178 is the first D3 cysteine; 7SXB places D3 at about 177-262); vector residues left after …
# B4: biotinylated avi-tagged TGM-D3 (domain or fragment)
# chain: GSGTGCPPLPDDGIVFYEYYGYAGDRHTVGPVVTKDSSGNYPSPTHARRRCRALSQEADPGEFVAICYKSGTTGESHWEYYKNIGKCPDP
# modifications: a single biotin on the avi tag (BirA)
# notes: also called TGM-D3 (SPR surface); not shown: Thioredoxin, N-terminal, cleaved; His6, N-terminal, cleaved
# B5: TGM-D3 (domain or fragment)
# chain: B4 chain
# notes: also called WT TGM-D3; domain 3 of H. polygyrus TGF-β mimic; not shown: Thioredoxin, N-terminal, cleaved; His6, N-terminal, cleaved
# B6: TGM-D3 V236A (domain or fragment)
# chain: B4 chain with V64A
# notes: also called Val236Ala; not shown: Thioredoxin, N-terminal, cleaved; His6, N-terminal, cleaved
# B7: TGM-D3 F235A (domain or fragment)
# chain: B4 chain with F63A
# notes: also called Phe235Ala; not shown: Thioredoxin, N-terminal, cleaved; His6, N-terminal, cleaved
# B8: TGM-D3 K254A (domain or fragment)
# chain: B4 chain with K82A
# notes: also called Lys254Ala; not shown: Thioredoxin, N-terminal, cleaved; His6, N-terminal, cleaved
# B9: TGM-D3 H199A (domain or fragment)
# chain: B4 chain with H27A
# notes: also called His199Ala; not shown: Thioredoxin, N-terminal, cleaved; His6, N-terminal, cleaved
# B10: TGM-D3 I238A (domain or fragment)
# chain: B4 chain with I66A
# notes: not shown: Thioredoxin, N-terminal, cleaved; His6, N-terminal, cleaved
# B11: TGM-D3 N255A (domain or fragment)
# chain: B4 chain with N83A
# notes: also called Asn255Ala; not shown: Thioredoxin, N-terminal, cleaved; His6, N-terminal, cleaved
# B12: TGM-D3 Y252A (domain or fragment)
# chain: B4 chain with Y80A
# notes: as for B10
# B13: TGM-D3 K258A (domain or fragment)
# chain: B4 chain with K86A
# notes: also called Lys258Ala; not shown: Thioredoxin, N-terminal, cleaved; His6, N-terminal, cleaved
# B14: TGM-D3 I256A (domain or fragment)
# chain: B4 chain with I84A
# notes: also called Ile256Ala; not shown: Thioredoxin, N-terminal, cleaved; His6, N-terminal, cleaved
# Key:
# Conditions in all cases: both partners purified
# TβRI ectodomain = biological target: B2; assay: ITC; TGM construct titrated into TβRI in the cell; 25 mM Hepes, 50 mM NaCl, 0.05% NaN3, pH 7.5, 25 °C; 1:1 model
# TGM-D2 = biological target: B1; assay: NMR titration; 1H-15N HSQC of 15N TGM-D2 or 15N TGM-D3 with 0 to 1.4 equivalents of unlabeled TβRI; 25 mM sodium phosphate, 50 mM NaCl, pH 7.0, 310 K (legend of Figure 3)
# TβRII D55N = biological target: T1, TβRII D55N (UniProt P37173 23-166, D55N); assay: SPR; biotinylated avi-tagged TGM-D3 captured (50-150 RU) on a neutravidin-coated CM-5 chip, TβRII and its variants injected; 25 mM Hepes, pH 7.4, 150 mM NaCl, 0.05% surfactant P20, 100 µl/min; 1:1 kinetic fit of duplicate or triplicate injection series
# T1 construct: also called Asp55Asn
# T1 sequence (P37173 23-166 D55N): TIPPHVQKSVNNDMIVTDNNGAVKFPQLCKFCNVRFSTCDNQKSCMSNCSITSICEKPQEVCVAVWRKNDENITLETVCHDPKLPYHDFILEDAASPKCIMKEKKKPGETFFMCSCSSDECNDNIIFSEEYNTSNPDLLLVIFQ
# TβRII I73A = biological target: T2, TβRII I73A (UniProt P37173 23-166, I73A); assay: as above
# T2 construct: also called Ile73Ala
# T2 sequence (P37173 23-166 I73A): as the sequence (P37173 23-166 D55N) above, with N33D, I51A counted along it
# TβRII S75L = biological target: T3, TβRII S75L (UniProt P37173 23-166, S75L); assay: as above
# T3 construct: also called Ser75Leu
# T3 sequence (P37173 23-166 S75L): as the sequence (P37173 23-166 D55N) above, with N33D, S53L counted along it
# TβRII I76A = biological target: T4, TβRII I76A (UniProt P37173 23-166, I76A); assay: as above
# T4 construct: also called Ile76Ala
# T4 sequence (P37173 23-166 I76A): as the sequence (P37173 23-166 D55N) above, with N33D, I54A counted along it
# TβRII E142Q = biological target: T5, TβRII E142Q (UniProt P37173 23-166, E142Q); assay: as above
# T5 construct: also called Glu142Gln
# T5 sequence (P37173 23-166 E142Q): as the sequence (P37173 23-166 D55N) above, with N33D, E120Q counted along it
# TβRII ectodomain [1] = biological target: T6, TβRII ectodomain (UniProt P37173 23-166); assay: as above
# T6 construct: also called WT TβRII; TGF-β type II receptor
# T6 sequence (P37173 23-166): as the sequence (P37173 23-166 D55N) above, with N33D counted along it
# TβRII ectodomain [2] = biological target: T6, TβRII ectodomain; assay: ITC; TGM construct in the syringe (300-320 µM), 15 µM TβRII in the cell; 25 mM sodium phosphate, 50 mM NaCl, pH 6.0, 35 °C; 1:1 model (Nitpic, Sedphat)
# [3] = biological target: T7, biotinylated avi-tagged TβRII (UniProt P37173 23-166, a single biotin on the avi tag (BirA)); assay: SPR; biotinylated avi-tagged TβRII captured (50-150 RU) on a neutravidin-coated CM-5 chip, TGM-D3 and its variants injected; 25 mM Hepes, pH 7.4, 150 mM NaCl, 0.05% surfactant P20, 100 µl/min; 1:1 kinetic fit of duplicate or triplicate injection series
# T7 construct: also called TβRII (SPR surface)
# T7 sequence (P37173 23-166): as the sequence (P37173 23-166 D55N) above, with N33D counted along it
Binder,Kd [3],koff [3],kon [3],further results
B1,,,,fold increase of KD against TGM-FL (TβRI ectodomain): ~50 fold; stoichiometry N (TβRI ectodomain): ~0.5
B2,,,,stoichiometry N (TGM-D2): 1
B3,,,,Kd (TβRI ectodomain): 0.025 µM; dH (TβRI ectodomain): -19 kcal/mol; stoichiometry N (TβRI ectodomain): ~1
B4,,,,Kd (TβRII D55N): 63 ± 1 µM; koff (TβRII D55N): 3.1 ± 0.1 s⁻¹; kon (TβRII D55N): 50000 M⁻¹ s⁻¹; Kd (TβRII I73A): 6.9 ± 0.1 µM; koff (TβRII I73A): 1.1 ± 0.1 s⁻¹; kon (TβRII I73A): 160000 M⁻¹ s⁻¹; Kd (TβRII S75L): 310 ± 30 µM; koff (TβRII S75L): 3.9 ± 0.9 s⁻¹; kon (TβRII S75L): 13000 M⁻¹ s⁻¹; Kd (TβRII I76A): 26 ± 1 µM; koff (TβRII I76A): 1.2 ± 0.1 s⁻¹; kon (TβRII I76A): 47000 M⁻¹ s⁻¹; Kd (TβRII E142Q): 17 ± 1 µM; koff (TβRII E142Q): 10 ± 10 s⁻¹; kon (TβRII E142Q): 410000 M⁻¹ s⁻¹; Kd (TβRII ectodomain [1]): 1.6 ± 0.1 µM; koff (TβRII ectodomain [1]): 0.7 ± 0.1 s⁻¹; kon (TβRII ectodomain [1]): 410000 M⁻¹ s⁻¹
B5,1.6 ± 0.1 µM,0.26 ± 0.01 s⁻¹,160000 M⁻¹ s⁻¹,Kd (TβRII ectodomain [2]): 1.2 µM; stoichiometry N (TβRII ectodomain [2]): 1.1
B6,4.6 ± 0.1 µM,1.8 ± 0.1 s⁻¹,380000 M⁻¹ s⁻¹,
B7,4.1 ± 0.1 µM,1.8 ± 0.2 s⁻¹,450000 M⁻¹ s⁻¹,
B8,35 ± 1 µM,12 ± 6 s⁻¹,300000 M⁻¹ s⁻¹,
B9,3 ± 0.1 µM,0.98 ± 0.01 s⁻¹,330000 M⁻¹ s⁻¹,
B10,25 ± 1 µM,2.3 ± 0.1 s⁻¹,94000 M⁻¹ s⁻¹,
B11,2.7 ± 0.1 µM,1.3 ± 0.1 s⁻¹,480000 M⁻¹ s⁻¹,
B12,21 ± 1 µM,1.7 ± 0.1 s⁻¹,78000 M⁻¹ s⁻¹,
B13,2.7 ± 0.1 µM,1.2 ± 0.1 s⁻¹,430000 M⁻¹ s⁻¹,
B14,1.6 ± 0.1 µM,1.4 ± 0.1 s⁻¹,880000 M⁻¹ s⁻¹,
